Series [1] relates to Cyclin T1 (P-TEFb subunit);CDK9 (P-TEFb subunit);HIV-1 Tat;AFF4 2-73 (human;not given;HIV-1;not given). Nature of the series: EMSA. (In general: A gel shift assay detects complexes by their altered migration in electrophoresis.)
Series [2] has as its system Cyclin T1 (P-TEFb subunit);CDK9 (P-TEFb subunit);HIV-1 Tat;AFF4 2-98 (human;not given;HIV-1;not given). Nature of the series: EMSA.
Series [3] deals with Cyclin T1 (P-TEFb subunit);CDK9 (P-TEFb subunit);HIV-1 Tat;AFF4 32-67 (human;not given;HIV-1;not given). Nature of the series: EMSA.
For series [4], the target named is Tat-P-TEFb complex (HIV-1 Tat 1–57, CDK9 1–330, cyclin T1 1–264) (HIV-1 | human) (UniProt P04608).
The target in series [5] is Tat-P-TEFb complex (HIV-1 Tat 1–57, CDK9 1–330, cyclin T1 1–264) (HIV-1 | human, UniProt P04608 1-57; P50750 1-330; O60563 1-264, N-terminally acetylated (N-acetyl group on M1)). Kind of series: cell-based or functional assay.
The target in series [6] is T1, human cyclin T1 1–264 (human, UniProt O60563 1-264).
T1 construct: human cyclin T1, residues 1-264; also called CycT1
T1 sequence (O60563 1-264): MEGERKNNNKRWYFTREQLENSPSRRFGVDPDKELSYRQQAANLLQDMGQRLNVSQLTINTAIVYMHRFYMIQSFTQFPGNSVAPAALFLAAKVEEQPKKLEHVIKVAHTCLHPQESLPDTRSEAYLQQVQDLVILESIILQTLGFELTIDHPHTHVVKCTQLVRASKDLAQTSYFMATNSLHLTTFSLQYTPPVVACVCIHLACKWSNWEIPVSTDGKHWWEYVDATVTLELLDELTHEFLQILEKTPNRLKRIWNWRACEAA
Kind of series: crystal structure; quaternary complex of Tat 1–57, AFF4 2–73, CDK9 1–330 and CycT1 1–264; 3.0 Å; three complexes in the a.u.; crystals from 2.4 M sodium formate, 10 mM MgCl2 at 18°C. The conditions noted are these: both partners purified.

Series [7] deals with T2, human CDK9 1–330 (human, UniProt P50750 1-330).
T2 construct: human CDK9, residues 1-330
T2 sequence (P50750 1-330): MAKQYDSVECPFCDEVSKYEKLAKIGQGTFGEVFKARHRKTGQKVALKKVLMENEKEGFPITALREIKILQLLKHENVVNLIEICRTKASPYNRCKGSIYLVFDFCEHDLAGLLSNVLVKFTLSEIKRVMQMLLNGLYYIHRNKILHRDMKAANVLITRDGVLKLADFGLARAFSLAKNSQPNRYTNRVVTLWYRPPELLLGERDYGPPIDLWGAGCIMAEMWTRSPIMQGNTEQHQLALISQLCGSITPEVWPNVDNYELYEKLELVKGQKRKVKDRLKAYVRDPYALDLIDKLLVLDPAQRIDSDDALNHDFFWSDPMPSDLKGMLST
The series is described as above. The conditions noted are these: both partners purified.

These results are taken from paper PMC4013717, “AFF4 binding to Tat-P-TEFb indirectly stimulates TAR recognition of super elongation complexes at the HIV promoter” (eLife, 2014).

Consider TAR RNA (nucleotides 18-44), for which the K half in series [1], in series [2] and in series [3] was 1.1 nM each time.

B1: AFF4 fragment 2–98 (domain or fragment)
chain: NREDRNVLRMKERERRNQEIQQGEDAFPPSSPLFAEPYKVTSKEDKLSSRIQSMLGNYDEMKDFIGDRSIPKLVAIPKPTVPPSADEKSNPNFFEQR
With B1, the EMSA with 32P-labeled TAR RNA and Tat-P-TEFb in the presence of excess AFF4 2–98: increase of the affinity for TAR in series [4] is 30 fold.

B2: AFF4 fragment 32–67 (domain or fragment)
chain: SPLFAEPYKVTSKEDKLSSRIQSMLGNYDEMKDFIG
B2: in series [4], the EMSA with 32P-labeled TAR RNA and Tat-P-TEFb in the presence of excess AFF4 32–67: increase of the affinity for TAR is 30 fold.

B3: AFF4 fragment 2–73 (domain or fragment, UniProt Q9UHB7 2-73, looked up)
chain: NREDRNVLRMKERERRNQEIQQGEDAFPPSSPLFAEPYKVTSKEDKLSSRIQSMLGNYDEMKDFIGDRSIPK
notes: AFF4 (SEC scaffold), residues 2-73; The His-tag is TEV-protease-cleavable; also called AFF4_(2–73); source: E. coli, purified
For B3, the “EMSA with 32P-labeled TAR RNA and Tat-P-TEFb in the presence of excess AFF4 2–73: increase of the affinity for TAR” value in series [5] came to 30 fold. For the same molecule, the binding result in series [6] and in series [7] was “binds” in each case.
